Source: US20220041746A1 (Sanofi, published 2022)
Where “and” joins values, the source holds several entries; their conditions need not be identical. Equal values may be shown once. Read-outs that look alike come from different tables or passages of the source. Blank lines part the entries; values can stand above or below the binder they belong to.

Columns and labels:
[1] = target: T1, CD38 isoform A (SEQ ID NO:1) (human, UniProt P28907 45-300); experiment: ELISA, plate coated with the CD38 isoform
T1 construct: also called huCD38 isoform A
Experimental: (§1) 96-well plates were coated with either isoform at 0.5 μg/well in PBS and 100 μL/well of antibodies were added to the plate. The plate was incubated at 37° C. for 1 h and washed five times with PBS containing 0.05% Tween-20 (PBS-T). […] Following incubation at 37° C. for 1 h in darkness, plates were washed with PBS-T five times. Antibody binding w as visualized by adding TMB-H2O2 buffer and read at a wavelength of 450 nm. EC50 values were estimated using BIOST@T-SPEED software.

[2] = target: T2, CD38 isoform E (SEQ ID NO:105) (human, UniProt P28907 45-195, limits assumed); experiment: ELISA, plate coated with the CD38 isoform
T2 construct: also called huCD38 isoform E
Experimental: as §1

[3] = target: T3, human CD38 expressed on the cell surface (human, UniProt P28907 1-300); experiment: flow cytometry on SU-DHL-8 cells (SUDHL8)
T3 construct: whole, on cells; also called hCD38-expressing cells; huCD38

[4] = target: T3, human CD38 expressed on the cell surface; experiment: flow cytometry on preB::300.19 cells, apparent KD
Experimental: (§2) The recombinant cell line was described by J. Deckket et al. 2014 Clin Cancer Res 20:4574-4583. […] Antibody binding was evaluated after centrifugation and resuspension of cells by adding 200 μL/well PBS 1% BSA and read using Guava® easvCyte™ 8HT Flow Cytometry System. Apparent KD and EC50 values were estimated using BIOST@T-BINDING and BIOST@T-SPEED software, respectively.

[5] = target: T4, cynomolgus monkey CD38 expressed on the cell surface (cynomolgus monkey, UniProt Q5VAN0 1-301); experiment: flow cytometry on preB::300.19 cells, apparent KD
T4 construct: whole, on cells; also called cCD38-expressing cells
Experimental: as §2

[6] = target: T3, human CD38 expressed on the cell surface; experiment: flow cytometry on preB::300.19 cells, apparent KD; remark: listed apart in the source
Experimental: as §2

[7] = target: T4, cynomolgus monkey CD38 expressed on the …; experiment: flow cytometry on preB::300.19 cells, apparent KD; remark: listed apart in the source
Experimental: as §2

[8] = target: T4, cynomolgus monkey CD38 expressed on the …; experiment: flow cytometry on PreB cynoCD38-expressing cells
[9] = target: T5, hCD38-his (SEQ ID NO: 2) (human, UniProt P28907 45-300); experiment: SPR, mAb captured via anti-human Fc, soluble CD38-his injected
T5 construct: His-tagged soluble protein derived from isoform A; also called human CD38-histag; hCD38::Histag
Experimental: (§3) The binding properties of the anti-huCD38 mabs were evaluated using a BIAcore 2000 (BIAcore Inc., Uppsala, Ni). […] The surface was regenerated between injections using 30 μL of 50 mM NaOH-1 M NaCl. Individual sensorgrams wore analyzed using BIAsimulation software.

[10] = target: T6, cCD38-his (SEQ ID NO: 4) (cynomolgus monkey, UniProt Q5VAN0 46-301); experiment: as above
T6 construct: His-tagged soluble protein; also called cyno CD38-histag; cynoCD38::Histag
Experimental: as §3

[11] = target: T5, hCD38-his (SEQ ID NO: 2); experiment: as above; remark: listed apart in the source
Experimental: as §3

[12] = target: T6, cCD38-his (SEQ ID NO: 4); experiment: as above; remark: listed apart in the source
Experimental: as §3

[13] = target: T3, human CD38 expressed on the cell surface; experiment: flow cytometry on MOLP-8 multiple myeloma cells [Cont.]
[14] = target: T7, recombinant human CD38 (SPR of Example 4) (human, UniProt P28907 45-300, limits assumed); experiment: SPR, target binding without other targets present
Experimental: (§4) Surface regenerate was conducted by injecting 10 mM Glycine-HCl pH 2.5 for 60 sec at 30 μl/min. […] Equilibrium dissociation constant (KD) was calculated using association rate constant (kₒₙ) and dissociation rate constant (koff).
(§5) Next, each antigen binding domain of the CD38SB19×CD28ₛᵤₚ×CD3mid specific binding protein was evaluated by SPR for the ability to bind cognate antigen with and without the other two antigen binding domains in saturation.

[15] = target: T3, human CD38 expressed on the cell surface; experiment: flow cytometry on preB::300.19 cells, apparent KD; remark: listed apart in the source
Experimental: as §2, with “Clin.” for “Clin”, “μl/well” for “μL/well”, “easyCyte™” for “easvCyte™”, “BIOST®T-BINDING” for “BIOST@T-BINDING”, “BIOST®T-SPEED” for “BIOST@T-SPEED”

[16] = target: T3, human CD38 expressed on the cell surface; experiment: flow cytometry on 300.19 huCD38 cells (PréB hCD38)
Experimental: as §2, with “Clin.” for “Clin”, “μl/well” for “μL/well”, “easyCyte™” for “easvCyte™”, “BIOST®T-BINDING” for “BIOST@T-BINDING”, “BIOST®T-SPEED” for “BIOST@T-SPEED”

[17] = target: T7, recombinant human CD38 (SPR of Example …); experiment: SPR, target binding with the other two targets in saturation
Experimental: as §4, §5

[18] = target: T7, recombinant human CD38 (SPR of Example …); experiment: SPR
[19] = target: T4, cynomolgus monkey CD38 expressed on the …; experiment: flow cytometry on 300.19 cynoCD38 cells (PréB cCD38)
Experimental: as §2, with “Clin.” for “Clin”, “μl/well” for “μL/well”, “easyCyte™” for “easvCyte™”, “BIOST®T-BINDING” for “BIOST@T-BINDING”, “BIOST®T-SPEED” for “BIOST@T-SPEED”

EC50 [1]: 0.11 nM
EC50 [2]: 0.08 nM
EC50 [3]: 0.24 nM and 0.0366 µg/mL
Kd [4]: 0.28 nM
Kd [5]: 0.22 nM
Kd [6]: 0.28 nM
Kd [7]: 0.22 nM
EC50 [8]: 0.033 µg/mL and 0.15 nM
Kd [9]: 0.336 nM
koff [9]: 0.000266 s⁻¹
Kd [10]: 0.39 nM
koff [10]: 9.85e-05 s⁻¹
Kd [11]: 0.336 nM
koff [11]: 0.000266 s⁻¹
Kd [12]: 0.39 nM
koff [12]: 9.85e-05 s⁻¹
EC50 [13]: 0.98 nM and 0.148 µg/mL
B1: mAb1 (antibody, human IgG1, kappa, V domains shown)
VH: QVQLQQSGAELVRSGASVKMSCKASGYTFTSFNMHWVKETPGQGLEWIGYIYPGNGGTNYNQKFKGKATLTADTSSSTAYMQISSLTSEDSAVYFCARTGGLRRAYFTYWGQGTLVTVSS
VL: DIVLTQSPASLAVSLGQRATISCRASESVDSYGNGFMHWYQQKPGQPPKLLIYLASNLESGVPARFSGSGSRTDFTLTIDPVEADDAATYYCQQNKEDPWTFGGGTKLEIKR
notes: also called antiCD38_C2-CD38-1

Kd [14]: 1.75 nM
Kd [15]: 4 nM
EC50 [16]: 4 nM and 0.603 µg/mL
Kd [17]: 2.42 nM
B2: CD38SB19×CD28sup×CD3mid trispecific binding protein (other)
VH 1: QVQLVQSGAEVAKPGTSVKLSCKASGYTFTDYWMQWVKQRPGQGLEWIGTIYPGDGDTGYAQKFQGKATLTADKSSKTVYMHLSSLASEDSAVYYCARGDYYGSNSLDYWGQGTSVTVSS
VL 1: DIVMTQSHLSMSTSLGDPVSITCKASQDVSTVVAWYQQKPGQSPRRLIYSASYRYIGVPDRFTGSGAGTDFTFTISSVQAEDLAVYYCQQHYSPPYTFGGGTKLEIK
VH 2: QVQLVQSGAEVVKPGASVKVSCKASGYTFTSYYIHWVRQAPGQGLEWIGSIYPGNVNTNYAQKFQGRATLTVDTSISTAYMELSRLRSDDTAVYYCTRSHYGLDWNFDVWGKGTTVTVSS
VL 2: DIQMTQSPSSLSASVGDRVTITCQASQNIYVWLNWYQQKPGKAPKLLIYKASNLHTGVPSRFSGSGSGTDFTLTISSLQPEDIATYYCQQGQTYPYTFGQGTKLEIK
VH 3: QVQLVESGGGVVQPGRSLRLSCAASGFTFTKAWMHWVRQAPGKQLEWVAQIKDKSNSYATYYADSVKGRFTISRDDSKNTLYLQMNSLRAEDTAVYYCRGVYYALSPFDYWGQGTLVTVSS
VL 3: DIVMTQTPLSLSVTPGQPASISCKSSQSLVHNNANTYLSWYLQKPGQSPQSLIYKVSNRFSGVPDRFSGSGSGTDFTLKISRVEAEDVGVYYCGQGTQYPFTFGSGTKVEIK

Kd [18]: 1 nM
binding result [19]: binds
B3: CD38HHY1370×CD28sup×CD3mid (other)
VH 1: QVQLVESGGGVVQPGRSLRLSCAASGFTFSSYGMHWVRQAPGKGLEWVAVIWYDGSNKYYADSVKGRFTISGDNSKNTLYLQMNSLRAEDTAVYYCARMFRGAFDYWGQGTLVTVSS
VL 1: AIQMTQSPSSLSASVGDRVTITCRASQGIRNDLGWYQQKPGKAPKLLIYAASSLQSGVPSRFSGSGSGTDFTLTISGLQPEDSATYYCLQDYIYYPTFGQGTKVEIK
VH 2: QVQLVQSGAEVVKPGASVKVSCKASGYTFTSYYIHWVRQAPGQGLEWIGSIYPGNVNTNYAQKFQGRATLTVDTSISTAYMELSRLRSDDTAVYYCTRSHYGLDWNFDVWGKGTTVTVSS
VL 2: DIQMTQSPSSLSASVGDRVTITCQASQNIYVWLNWYQQKPGKAPKLLIYKASNLHTGVPSRFSGSGSGTDFTLTISSLQPEDIATYYCQQGQTYPYTFGQGTKLEIK
VH 3: QVQLVESGGGVVQPGRSLRLSCAASGFTFTKAWMHWVRQAPGKQLEWVAQIKDKSNSYATYYADSVKGRFTISRDDSKNTLYLQMNSLRAEDTAVYYCRGVYYALSPFDYWGQGTLVTVSS
VL 3: DIVMTQTPLSLSVTPGQPASISCKSSQSLVHNNANTYLSWYLQKPGQSPQSLIYKVSNRFSGVPDRFSGSGSGTDFTLKISRVEAEDVGVYYCGQGTQYPFTFGSGTKVEIK
